Test results reported in publication PMC6891902, “GLTSCR1 Negatively Regulates BRD4‐Dependent Transcription Elongation and Inhibits CRC Metastasis” (Advanced Science, 2019).

Molecular target: T1, His-tagged BRD4 (1-470, BDs domain) (UniProt O60885 1-470)
T1 construct: BRD4, BDs domain (BD1 + BD2), aa 1-470; also called His-BRD4 (BD1 + BD2); pET-28a-His-BRD4 (1-470)
Experiment: pull-down; GST pull-down; purified GST-GLTSCR1 (1161-1361) incubated with purified His-tagged BRD4 fragment at 4 °C overnight; beads washed three times in lysis buffer (0.5% Triton-X100, 50 mM NaH2PO4, 300 mM NaCl); immunoblot
Details: both partners purified

- binding result: binds
B1: GST-GLTSCR1 (aa 1161-1361), BRD4 binding domain (BB domain) (domain or fragment, human, UniProt Q9NZM4 1161-1361, looked up)
chain: EESRRVSPSAEMVMIDRMFIQEEKTTLALDKQLAKEKPDEYVSSSRSLGLPIAASSEGHRLPGHGPLSSSAPGASTQPPPHLPTKLVIRHGGAGGSPSVTWARASSSLSSSSSSSSAASSLDADEDGPMPSRNRPPIKTYEARSRIGLKLKIKQEAGLSKVVHNTALDPVHQPPPPPATLKVAEPPPRPPPPPPPTGQMNG
notes: also called GST-tagged GLTSCR1 BB domain; source: E. coli BL21, purified (glutathione agarose beads)
